Values after ≈ are worked out from the molar mass of the structure shown. Values joined by “and” are separate entries in the source; they are usually repeats but may differ in a detail not shown here. Equal values may be shown once.
Columns and labels:
Format in all cases: cell-based
[1] = system: Mouse macrophage RAW264.7 cells; assay: NO concentration after treatment of LPS-stimulated RAW264.7 cells; settings: Dexamethasone positive control; LPS 10 ng/ml, 24 hours; replicate experiments
Procedure: (§1) (1) Mouse macrophage RAW264.7 cells were cultured in DMEM supplemented with 10% fetal bovine serum (FBS) and 1% penicillin and streptomycin (P/S) at 37° C. in a 5% CO2 incubator.
(§2) (2) 5×10^4 mouse-derived RAW264.7 macrophages were placed in 12-well cell culture plates and cultured for 24 hours. Then, 20 μL of PBS (negative control), Dexamethasone (positive control), and the test peptide were added to the wells for incubation for 2 hours. Afterward, 10 ng/ml of lipopolysaccharide (LPS) was mixed with RAW264.7 cells and incubated for 24 hours.
(§3) (3) The supernatant was collected, and NO and IL-6/IL-1ß expression levels were measured using a commercial kit.

[2] = system: Mouse macrophage RAW264.7 cells; assay: IL-6 and IL-1β protein concentration in LPS-stimulated RAW264.7 cells (ELISA); settings: Dexamethasone positive control; LPS 10 ng/ml, 24 hours; repeated experiments
Procedure: as §1, §2, §3
2. After treating RAW264.7 cells with peptide AMP-33, an ELISA kit was used to detect the concentration of IL-6 and IL-1β proteins.

[3] = system: Escherichia coli; assay: Minimum inhibitory concentration on Escherichia coli (liquid culture); settings: for Minimum inhibitory concentration on Escherichia coli: 37° C., 24 to 48 hours
Procedure: (§4) Primary screening of liquid culture: the peptides in Examples 1 to 2 were dissolved in pure water to a concentration of 100 μg/mL. Using a micropipette, 10 μL of the peptides were added to a new 96-well plate in order from left to right, starting from the second compartment. Positive and negative controls were established for use. The 96-well plates were arranged vertically, and the peptide concentrations in the control groups were the same as those of the antimicrobial peptides. The control groups included: pure water and bacteria, antimicrobial peptide FK13 and bacteria, antimicrobial peptide HPA3NT3 and bacteria, and ciprofloxacin and bacteria. An aseptic medium was used.
(§5) If a 96-deep-well plate was used to culture bacteria, an additional 100 μL of sterile medium was added to all wells.
(§6) E. coli was inoculated in LB medium with normal oxygen concentration (21%) for 48 hours. E. coli clones were picked and incubated in LB medium at 37° C. with normal oxygen concentration (21%) for an additional 48 hours. The bacterial concentration was measured and diluted to 107 CFU/mL with culture medium for use.
(§7) The prepared fresh bacterial suspension was diluted to 105 CFU/mL and added to the 96-well plate with 90 μL of the bacterial suspension per well. The plate was incubated at 37° C. with a normal oxygen concentration for 24 to 48 hours (Propionibacterium acnes was cultured anaerobically at 37° C. for 24 to 48 hours in an anaerobic bag). The absorbance at 630 nm was measured using a microplate reader, and the degree of turbidity was observed by the naked eye.
(§8) (iv) Repetition of Operations: The Operations in (iii) were Repeated Twice, and the Decision to Perform a Third Repetition was Based on the Reproducibility of the Experiment.

[4] = system: Staphylococcus aureus; assay: Minimum inhibitory concentration on Staphylococcus aureus (liquid culture); settings: for Minimum inhibitory concentration on Staphylococcus aureus: 37° C., 24 to 48 hours
Procedure: as §4, §5
Staphylococcus aureus was inoculated in LB medium with a normal oxygen concentration (21%) for 48 hours. Staphylococcus aureus clones were picked and incubated in LB medium at 37° C. with a normal oxygen concentration (21%) for an additional 48 hours. The bacterial concentration was measured and diluted to 107 CFU/mL with culture medium for use.
as §7, §8

[5] = system: Propionibacterium acnes; assay: Minimum inhibitory concentration on Propionibacterium acnes (liquid culture); settings: for Minimum inhibitory concentration on Propionibacterium acnes: anaerobic, 37° C., 24 to 48 hours
Procedure: as §4, §5
Propionibacterium acnes was inoculated on an anaerobic blood agar plate, placed in an anaerobic bag, and incubated anaerobically at 37° C. for 48 hours. Propionibacterium acnes clones were then picked and incubated anaerobically in liquid anaerobic broth medium at 37° C. for an additional 48 hours. The bacterial concentration was measured and diluted to 107 CFU/mL with culture medium.
as §7, §8

[6] = system: Candida albicans; assay: Minimum inhibitory concentration on Candida albicans (liquid culture); settings: 37° C., 24 to 48 hours
Procedure: Primary screening of liquid culture: the peptides in Examples 1 to 2 were dissolved in pure water to a concentration of 100 μg/mL. Using a micropipette, 10 μL of the peptides were added to a new 96-well plate in order from left to right, starting from the second compartment. Positive and negative controls were established for use. The 96-well plates were arranged vertically, and the peptide concentrations of the control groups were the same as those of the antimicrobial peptide. The control groups consisted of: pure water and bacteria, antimicrobial peptide FK13 and bacteria, and antimicrobial peptide HPA3NT3 and bacteria. An aseptic medium was used. The amino acid sequence of FK13 is […] (SEQ ID NO: 5), and the amino acid sequence of HPA3NT3 is […] (SEQ ID NO: 6).
as §5
as §6, with “Candida albicans was” for “E. coli was”, “for” for “for an additional”
The prepared fresh bacterial suspension was diluted to 105 CFU/mL and added to the 96-well plate with 90 μL of the bacterial suspension per well, and incubated at 37° C. with normal oxygen concentration for 24 to 48 hours. The absorbance at 630 nm was measured with a microplate reader, and the degree of turbidity was observed by the naked eye.
as §8

[7] = system: rabbit blood erythrocytes; assay: Measurement of hemolytic concentration; settings: for Hemolysis rate: 37° C., 1 hour, replicate wells; for Minimum hemolytic concentration: rabbit erythrocytes
Procedure: 4 mL of 2% rabbit blood erythrocytes were washed twice with 4 mL PBS and centrifuged at 3000 rpm for 5 minutes. The supernatant was discarded, and the rabbit blood erythrocytes were resuspended in 4 mL PBS. 160 μg of the peptides from Examples 1 to 2, FK13, and HPA3NT3 were independently dissolved in 1 mL PBS buffer to prepare the peptide mother solutions with a concentration of 160 μg/mL. Subsequently, the peptide mother solutions were diluted with PBS buffer to concentrations of 80 μg/mL, 64 μg/mL, 32 μg/mL, 16 μg/mL, and 8 μg/mL. 100 μL of the 2% rabbit blood erythrocytes and 100 μL of different concentrations of peptides (80 μg/mL, 64 μg/mL, 32 μg/mL, 16 μg/mL, 8 μg/mL) were added to each well of a 96-well plate. In the negative control, 100 μL of PBS buffer was added, while in the positive control, 100 μL of 0.1% (w/v) Triton X-100 was added. Three replicate wells were set up for each group and incubated at 37° C. for 1 hour. The 96-well plate was then removed, centrifuged at 3000 rpm for 5 minutes, and 100 μL of supernatant was aspirated and transferred to a new 96-well plate. The absorbance was measured at 540 nm using an enzyme meter. Hemolysis rate (%)=((Absorbancesample−Absorbancenegative)/(Absorbancepositive−Absorbancenegative))*100%.

[8] = system: HaCat (human immortalized epidermal cells) cells; assay: Cytotoxic assay (CCK-8) in HaCat cells; settings: 60 hours
Procedure: Preparation of Cell Suspension: HaCat (human immortalized epidermal cells) cells were counted and inoculated into 96-well plates. 100 μL of cell suspension was added to each well, corresponding to a density of 5×10^4 cells per well, with three replicates for each sample. The cells were cultured in a 37° C. incubator for 4 hours until they were attached to the plate. Peptides from the examples, as well as FK13 and HPA3NT3, were then added at concentrations of 80 μg/mL, 32 μg/mL, and 8 μg/mL. The cells were incubated at 37° C. for 60 hours. Afterward, 10 μL of CCK-8 solution was added, and the cells were cultured for an additional 2 hours. The absorbance of the peptides at 450 nm was measured using a dual-wavelength detector, with a detection wavelength of 450-490 nm and a reference wavelength of 600-650 nm.

Row | Compound | NO concentration [1] | IL-1β protein concentration [2] | IL-6 protein concentration [2] | MIC ([3]; Escherichia coli, read-out: Minimum inhibitory concentration on Escherichia coli) [µg/mL] | MIC ([4]; Staphylococcus aureus, read-out: Minimum inhibitory concentration on Staphylococcus aureus) [µg/mL] | MIC ([5]; Cutibacterium acnes, read-out: Minimum inhibitory concentration on Propionibacterium acnes) [µg/mL] | Minimum inhibitory concentration on Candida albicans [6] [µg/mL] | Minimum inhibitory concentration on Escherichia coli [3] [µg/mL] | Minimum inhibitory concentration on Staphylococcus aureus [4] [µg/mL] | Minimum inhibitory concentration on Propionibacterium acnes [5] [µg/mL] | Hemolysis rate ([7]; 8 μg/mL) | Hemolysis rate ([7]; 16 μg/mL) | Hemolysis rate ([7]; 32 μg/mL) | Hemolysis rate ([7]; 64 μg/mL) | Hemolysis rate ([7]; 80 μg/mL) | Minimum hemolytic concentration [7] [µg/mL] | Maximum cytotoxicity-free concentration [8] [µg/mL]
1 | C[C@@H]1C[C@H]2[C@@H]3CCC4=CC(=O)C=C[C@]4(C)[C@@]3(F)[C@@H](O)C[C@]2(C)[C@@]1(O)C(=O)CO [Dexamethasone, reference compound] | 6.80 µM and 6.06 µM and 3.43 µM | 75.1 pg/mL and 44 pg/mL | 14.2 pg/mL and 23.9 pg/mL |  |  |  |  |  |  |  |  |  |  |  |  |  | 
2 | O=C(O)c1cn(C2CC2)c2cc(N3CCNCC3)c(F)cc2c1=O [ciprofloxacin] |  |  |  | 0.25 (≈ 0.754 µM) | 0.25 (≈ 0.754 µM) | 0.25 (≈ 0.754 µM) |  |  |  |  |  |  |  |  |  |  | 
3 | Example 1: GIFKKITGKLFKWIK (designated as AMP5) |  |  |  |  |  |  | 25 | 50 | 50 | 8 | 14.6% and −0.9% and 2.8% | 5.9% and 1.8% and 80.0% | 62% and 2.8% and −1.9% | 3.7% and −1.0% and 3.8% | 14.6% and −0.9% and 2.8% | 3.7 | 80
4 | FK13: antimicrobial peptide FK13, FPLTWLKWWKWKKK [reference compound] |  |  |  |  |  |  | 25 | 50 | 4 | 4 | 3.9% and 7.2% and 5.9% | 3.4% and 2.5% and 0.4% | 2.5% and 3.1% and 5.0% | 5.3% and 2.5% and 2.7% | 27.0% and 21.5% and 27.4% | 64.0 | 80
5 | HPA3NT3: antimicrobial peptide HPA3NT3, FKRLKKLFKKKKIWNWK [reference compound] |  |  |  |  |  |  | 50 | 25 | 4 | 2 | 2.4% and 6.2% and 4.7% | 23% and −0.2% and 0.4% | 2.7% and 1.4% and 7.8% | 21.4% and −0.8% and 0.6% | 9.7% and 8.5% and 13.7% | 64.0 | 32
